This assay concerns the target T1, recombinant human Tau monomer, 2N4R isoform (amino acids 2-441) (human, UniProt P10636-8 2-441).
T1 construct: range 2-441; N-terminal His-tag removed with TEV protease; also called monomeric Tau
The experiment in a line: SPR screen, hIgG captured, Tau monomer analyte. From the text:
Antibody 125B11-H3 was humanized onto VH3 and Vκ1 consensus frameworks. The heavy chain graft included murine residues at position 78 (Kabat numbering system). The Vκ1 graft included murine residues in framework positions 43 and 87. The light chain of 113F5-F7 was also humanized onto the Vκ1 framework, with additional murine residues at framework positions 43 and 87. Humanized variant heavy chains (125B11) and light chains (125B11 and 113F5-F7) were co-transfected in multiple combinations and purified in 96-well format as described above. Humanized variants were then screened for affinity for human Tau monomer using the Biacore human IgG capture kit, a Series S CM5 chip and a Biacore T200 instrument. Antibodies were diluted to 2 μg/ml and captured for 15 seconds at 10 μl/min. Association and dissociation of 0, 100 and 500 nM human Tau monomer in HBSP was monitored for 180s and 300s respectively at a flow rate of 40 μl/min. A 1:1 binding model was applied to the results (Table 9).

For 16 molecules, Kd results are on record in patent US20190367592A1 (AC IMMUNE, published 2019).

“And” between values parts separate entries of the source, which are not always exact repeats. Equal entries are not always repeated.

T1 sequence (P10636 other isoform, or with tags, fused parts or gaps limits assumed): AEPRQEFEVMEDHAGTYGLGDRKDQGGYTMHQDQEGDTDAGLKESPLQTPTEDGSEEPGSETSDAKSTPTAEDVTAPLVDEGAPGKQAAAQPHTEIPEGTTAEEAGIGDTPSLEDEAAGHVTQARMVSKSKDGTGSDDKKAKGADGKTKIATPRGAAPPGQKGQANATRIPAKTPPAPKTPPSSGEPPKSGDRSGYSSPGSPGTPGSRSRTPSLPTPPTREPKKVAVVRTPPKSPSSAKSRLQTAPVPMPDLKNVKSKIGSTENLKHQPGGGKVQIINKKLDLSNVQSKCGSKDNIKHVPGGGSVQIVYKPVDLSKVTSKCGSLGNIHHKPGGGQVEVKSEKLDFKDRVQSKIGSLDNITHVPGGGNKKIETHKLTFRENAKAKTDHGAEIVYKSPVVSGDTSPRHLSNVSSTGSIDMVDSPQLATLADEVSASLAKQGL

B1: hu125B11 HC1 + hu113F5-F7 LC3 (antibody, V domains shown)
VH: EVQLVESGGGLVQPGGSLRLSCAASRFIFSNYWMNWVRQAPGKGLEWVAQIRLKSDNYATHYAESVKGRFTISRDDSKNTVYLQMNSLRAEDTAVYYCTGGTTYWGQGTLVTVSS
VL: DIQMTQSPSSLSASVGDRVTITCKASQNVGTAVAWYQQKPGKSPKLLIYSASRRFSGVPSRFSGSGSGTDFTLTISSLQPEDFATYYCQQFSTYPYTFGQGTKVEIK
The term Kd denotes the constant that tells how readily two partners part at equilibrium. Consider B1, for which the Kd came out at 61 nM.

B2: hu125B11 HC2 + hu113F5-F7 LC1 (antibody, V domains shown)
VH: EVQLVESGGGLVQPGGSLRLSCAASRFIFSNYWMNWVRQAPGKGLEWVAQIRLKSDNYATHYAESVKGRFTISRDNSKNTVYLQMNSLRAEDTAVYYCTGGTTYWGQGTLVTVSS
VL: DIQMTQSPSSLSASVGDRVTITCKASQNVGTAVAWYQQKPGKSPKLLIYSASRRFSGVPSRFSGSGSGTDFTLTISSLQPEDFATYFCQQFSTYPYTFGQGTKVEIK
For B2, the Kd stood at 61 nM.

B3: hu125B11 HC1 + 125B11 LC1 (antibody, V domains shown)
VH: EVQLVESGGGLVQPGGSLRLSCAASRFIFSNYWMNWVRQAPGKGLEWVAQIRLKSDNYATHYAESVKGRFTISRDDSKNTVYLQMNSLRAEDTAVYYCTGGTTYWGQGTLVTVSS
VL: DIQMTQSPSSLSASVGDRVTITCKASQNVGTAVAWYQQKPGKSPKLLIYSASIRYTGVPSRFSGSGSGTDFTLTISSLQPEDFATYFCQQFRTYPYTFGQGTKVEIK
For the molecule B3, the Kd is 16 nM and 19 nM.

B4: hu125B11 HC1 + hu113F5-F7 LC2 (antibody, V domains shown)
VH: EVQLVESGGGLVQPGGSLRLSCAASRFIFSNYWMNWVRQAPGKGLEWVAQIRLKSDNYATHYAESVKGRFTISRDDSKNTVYLQMNSLRAEDTAVYYCTGGTTYWGQGTLVTVSS
VL: DIQMTQSPSSLSASVGDRVTITCKASQNVGTAVAWYQQKPGKAPKLLIYSASRRFSGVPSRFSGSGSGTDFTLTISSLQPEDFATYFCQQFSTYPYTFGQGTKVEIK
Take B4: the Kd came to 67 nM.

B5: hu125B11 HC2 + hu113F5-F7 LC3 (antibody, V domains shown)
VH: EVQLVESGGGLVQPGGSLRLSCAASRFIFSNYWMNWVRQAPGKGLEWVAQIRLKSDNYATHYAESVKGRFTISRDNSKNTVYLQMNSLRAEDTAVYYCTGGTTYWGQGTLVTVSS
VL: DIQMTQSPSSLSASVGDRVTITCKASQNVGTAVAWYQQKPGKSPKLLIYSASRRFSGVPSRFSGSGSGTDFTLTISSLQPEDFATYYCQQFSTYPYTFGQGTKVEIK
With B5, the Kd is 64 nM.

B6: hu125B11 HC2 + 125B11 LC4 (antibody, V domains shown)
VH: EVQLVESGGGLVQPGGSLRLSCAASRFIFSNYWMNWVRQAPGKGLEWVAQIRLKSDNYATHYAESVKGRFTISRDNSKNTVYLQMNSLRAEDTAVYYCTGGTTYWGQGTLVTVSS
VL: DIQMTQSPSSLSASVGDRVTITCKASQNVGTAVAWYQQKPGKAPKLLIYSASIRYTGVPSRFSGSGSGTDFTLTISSLQPEDFATYYCQQFRTYPYTFGQGTKVEIK
As for B6, the dissociation constant (Kd) was 22 nM.

B7: hu125B11 HC1 + hu113F5-F7 LC4 (antibody, V domains shown)
VH: EVQLVESGGGLVQPGGSLRLSCAASRFIFSNYWMNWVRQAPGKGLEWVAQIRLKSDNYATHYAESVKGRFTISRDDSKNTVYLQMNSLRAEDTAVYYCTGGTTYWGQGTLVTVSS
VL: DIQMTQSPSSLSASVGDRVTITCKASQNVGTAVAWYQQKPGKAPKLLIYSASRRFSGVPSRFSGSGSGTDFTLTISSLQPEDFATYYCQQFSTYPYTFGQGTKVEIK
For the molecule B7, the Kd was found to be 71 nM.

B8: hu125B11 HC2 + hu113F5-F7 LC4 (antibody, V domains shown)
VH: EVQLVESGGGLVQPGGSLRLSCAASRFIFSNYWMNWVRQAPGKGLEWVAQIRLKSDNYATHYAESVKGRFTISRDNSKNTVYLQMNSLRAEDTAVYYCTGGTTYWGQGTLVTVSS
VL: DIQMTQSPSSLSASVGDRVTITCKASQNVGTAVAWYQQKPGKAPKLLIYSASRRFSGVPSRFSGSGSGTDFTLTISSLQPEDFATYYCQQFSTYPYTFGQGTKVEIK
B8: the Kd was 77 nM.

B9: hu125B11 HC1 + 125B11 LC2 (antibody, V domains shown)
VH: EVQLVESGGGLVQPGGSLRLSCAASRFIFSNYWMNWVRQAPGKGLEWVAQIRLKSDNYATHYAESVKGRFTISRDDSKNTVYLQMNSLRAEDTAVYYCTGGTTYWGQGTLVTVSS
VL: DIQMTQSPSSLSASVGDRVTITCKASQNVGTAVAWYQQKPGKAPKLLIYSASIRYTGVPSRFSGSGSGTDFTLTISSLQPEDFATYFCQQFRTYPYTFGQGTKVEIK
For B9, the Kd was found to be 20 nM.

B10: hu125B11 HC2 + hu113F5-F7 LC2 (antibody, V domains shown)
VH: EVQLVESGGGLVQPGGSLRLSCAASRFIFSNYWMNWVRQAPGKGLEWVAQIRLKSDNYATHYAESVKGRFTISRDNSKNTVYLQMNSLRAEDTAVYYCTGGTTYWGQGTLVTVSS
VL: DIQMTQSPSSLSASVGDRVTITCKASQNVGTAVAWYQQKPGKAPKLLIYSASRRFSGVPSRFSGSGSGTDFTLTISSLQPEDFATYFCQQFSTYPYTFGQGTKVEIK
Regarding B10, the Kd worked out at 68 nM.

B11: hu125B11 HC2 + 125B11 LC2 (antibody, V domains shown)
VH: EVQLVESGGGLVQPGGSLRLSCAASRFIFSNYWMNWVRQAPGKGLEWVAQIRLKSDNYATHYAESVKGRFTISRDNSKNTVYLQMNSLRAEDTAVYYCTGGTTYWGQGTLVTVSS
VL: DIQMTQSPSSLSASVGDRVTITCKASQNVGTAVAWYQQKPGKAPKLLIYSASIRYTGVPSRFSGSGSGTDFTLTISSLQPEDFATYFCQQFRTYPYTFGQGTKVEIK
B11: the Kd came out at 20 nM.

B12: hu125B11 HC2 + 125B11 LC1 (antibody, V domains shown)
VH: EVQLVESGGGLVQPGGSLRLSCAASRFIFSNYWMNWVRQAPGKGLEWVAQIRLKSDNYATHYAESVKGRFTISRDNSKNTVYLQMNSLRAEDTAVYYCTGGTTYWGQGTLVTVSS
VL: DIQMTQSPSSLSASVGDRVTITCKASQNVGTAVAWYQQKPGKSPKLLIYSASIRYTGVPSRFSGSGSGTDFTLTISSLQPEDFATYFCQQFRTYPYTFGQGTKVEIK
Regarding B12, the Kd came out at 18 nM.

B13: hu125B11 HC1 + 125B11 LC4 (antibody, V domains shown)
VH: EVQLVESGGGLVQPGGSLRLSCAASRFIFSNYWMNWVRQAPGKGLEWVAQIRLKSDNYATHYAESVKGRFTISRDDSKNTVYLQMNSLRAEDTAVYYCTGGTTYWGQGTLVTVSS
VL: DIQMTQSPSSLSASVGDRVTITCKASQNVGTAVAWYQQKPGKAPKLLIYSASIRYTGVPSRFSGSGSGTDFTLTISSLQPEDFATYYCQQFRTYPYTFGQGTKVEIK
Regarding B13, the Kd stood at 23 nM.

B14: hu125B11 HC1 + 125B11 LC3 (antibody, V domains shown)
VH: EVQLVESGGGLVQPGGSLRLSCAASRFIFSNYWMNWVRQAPGKGLEWVAQIRLKSDNYATHYAESVKGRFTISRDDSKNTVYLQMNSLRAEDTAVYYCTGGTTYWGQGTLVTVSS
VL: DIQMTQSPSSLSASVGDRVTITCKASQNVGTAVAWYQQKPGKSPKLLIYSASIRYTGVPSRFSGSGSGTDFTLTISSLQPEDFATYYCQQFRTYPYTFGQGTKVEIK
For the molecule B14, the Kd was 21 nM.

B15: hu125B11 HC2 + 125B11 LC3 (antibody, V domains shown)
VH: EVQLVESGGGLVQPGGSLRLSCAASRFIFSNYWMNWVRQAPGKGLEWVAQIRLKSDNYATHYAESVKGRFTISRDNSKNTVYLQMNSLRAEDTAVYYCTGGTTYWGQGTLVTVSS
VL: DIQMTQSPSSLSASVGDRVTITCKASQNVGTAVAWYQQKPGKSPKLLIYSASIRYTGVPSRFSGSGSGTDFTLTISSLQPEDFATYYCQQFRTYPYTFGQGTKVEIK
For B15, the Kd is 23 nM.

B16: hu125B11 HC1 + hu113F5-F7 LC1 (antibody, V domains shown)
VH: EVQLVESGGGLVQPGGSLRLSCAASRFIFSNYWMNWVRQAPGKGLEWVAQIRLKSDNYATHYAESVKGRFTISRDDSKNTVYLQMNSLRAEDTAVYYCTGGTTYWGQGTLVTVSS
VL: DIQMTQSPSSLSASVGDRVTITCKASQNVGTAVAWYQQKPGKSPKLLIYSASRRFSGVPSRFSGSGSGTDFTLTISSLQPEDFATYFCQQFSTYPYTFGQGTKVEIK
For B16, the Kd was 57 nM.
